# Test results: FireProtDB (doi:10.1021/bi00231a002)
# B1: Cytochrome c2 wild type, P00094 (protein)
# chain: MKISLTAATVAALVLAAPAFAGDAAKGEKEFNKCKTCHSIIAPDGTEIVKGAKTGPNLYGVVGRTAGTYPEFKYKDSIVALGASGFAWTEEDIATYVKDPGAFLKEKLDDKKAKTGMAFKLAKGGEDVAAYLASVVK
# Conditions: Rhodobacter capsulatus (strain ATCC BAA-309 / NBRC 16581 / SB1003); pH 7.5; 20 °C; GdnHCl; CD; Tris-HCl 20 mM; NaCl 40 mM; whole UniProt chain shown
protein,measurement,value
B1,denaturant m value,1.65 kcal/mol/M
same,denaturant midpoint (higher = more stable),4.51 M
same,unfolding free energy,7.45 kcal/mol
